Experimental data reported in patent US20220144936A1 (SINOCELLTECH, published 2022).
Values joined by “and” are separate entries in the source; they are usually repeats but may differ in a detail not shown here. Identical values can stand only once.

What was measured:
[1] = target: T1, recombinant human IL17A protein (human, UniProt Q16552 24-155); test: cell-based or functional assay
[2] = target: T2, recombinant human IL17A/F dimer protein (SinoBiological, Inc., CT047-HNAE) (human, UniProt Q16552 24-155; Q96PD4 31-163); test: Octet (BLI), biotinylated IL17A/F, antibody 0.42-3.47 nM
T2 construct: Bought heterodimer; also called IL17A/IL17F protein; IL17A/F-Biotin protein
T2 sequence (Q16552 24-155 limits assumed, chain 1 of 2): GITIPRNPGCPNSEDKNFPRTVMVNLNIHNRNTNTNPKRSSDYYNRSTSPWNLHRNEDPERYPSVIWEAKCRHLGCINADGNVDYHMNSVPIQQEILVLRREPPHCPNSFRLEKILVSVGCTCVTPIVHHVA
T2 sequence (Q96PD4 31-163 limits assumed, chain 2 of 2): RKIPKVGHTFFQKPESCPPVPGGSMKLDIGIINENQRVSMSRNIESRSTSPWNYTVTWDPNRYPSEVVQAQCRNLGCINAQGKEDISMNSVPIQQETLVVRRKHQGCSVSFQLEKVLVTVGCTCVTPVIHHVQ

[3] = target: T2, recombinant human IL17A/F dimer protein …; test: competition ELISA: IL17RA-Fc coated (competitor), IL17A/F-Biotin at 0.8 µg/mL, antibody varied
[4] = target: T2, recombinant human IL17A/F dimer protein …; test: ELISA: IL17A/F coated at different concentrations, antibody fixed at 2 µg/mL, anti-human IgG Fc/HRP; EC50 is on the antigen concentration
[5] = target: T3, mouse mIL17A protein (Sino Biological, Inc.) (mouse, UniProt Q62386 26-158); test: ELISA, coated antigen, goat anti-human IgG Fc/HRP
T3 construct: also called mouse IL17A protein
T3 sequence (looked up): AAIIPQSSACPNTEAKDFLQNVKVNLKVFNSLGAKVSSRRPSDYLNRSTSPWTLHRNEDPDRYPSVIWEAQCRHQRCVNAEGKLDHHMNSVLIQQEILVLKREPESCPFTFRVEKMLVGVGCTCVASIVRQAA

[6] = target: T1, recombinant human IL17A protein; test: cell-based or functional assay; remark: listed apart in the source
[7] = target: T2, recombinant human IL17A/F dimer protein …; test: cell-based or functional assay
[8] = target: T1, recombinant human IL17A protein; test: competition ELISA: IL17A coated, competitor IL17RA-His-biotin at 2 µg/mL, antibody varied
[9] = target: T1, recombinant human IL17A protein; test: Octet (BLI), biotinylated IL17A, antibody 0.42-3.47 nM
[10] = target: T1, recombinant human IL17A protein; test: ELISA: IL17A coated at different concentrations, antibody fixed at 2 µg/mL, anti-human IgG Fc/HRP; EC50 is on the antigen concentration

T1 sequence (Q16552 24-155 limits assumed): as the sequence (Q16552 24-155 limits assumed, chain 1 of 2) above

B1: murine antibody IL17A-M069 (antibody, mouse IgG1, V domains shown)
VH: QAHLQQSGAELVRPGASVKLSCKALGYTFTDYEMHWVKQTPVHGLEWIGVIHPGGGGTAYNQKFKGKATLTADKSSSTAYMELSSLTSEDSAVYYCTRGDHDGRTDYWGQGTTLTVSS
VL: DIVMSQSPSSLAMSVGQKVTMNCKSNQSLLNRSNQKNYLAWYQQKPGQSPKLLVDFASTRESGVPDRFIGSGSGTDFSLTISSVQAEDLADYFCQQHYTTPFTFGSGTKLEIK
EC50 of blocking IL17A-induced IL-6 secretion of HFF cells [1]: 0.243 µg/mL

B2: humanized antibody IL17A-H069 (antibody, human IgG1, kappa, V domains shown)
VH: EVQLVQSGAEVKKPGATVKISCKASGYTFTDYEMHWVQQAPGHGLEWMGVIHPGGGGTAYNQKFKGRVTITADTSTDTAYMELSSLRSEDTAVYYCTRGDHDGRTDYWGQGTLVTVSS
VL: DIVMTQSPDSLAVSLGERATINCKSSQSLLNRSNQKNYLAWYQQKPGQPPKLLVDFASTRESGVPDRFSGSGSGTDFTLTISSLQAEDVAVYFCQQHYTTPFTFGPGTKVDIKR
notes: Humanized IgG1/kappa made in CHO-K1-GS cells
Kd [2]: 0.537 nM
koff [2]: 7.72e-05 s⁻¹
kon [2]: 144000 M⁻¹ s⁻¹
IC50 [3]: 1.02 µg/mL
EC50 [4]: 0.0363 µg/mL
binding result [5]: no binding
EC50 (µg/mL), blocking IL17A-induced IL6 secretion of HFF cells [6]: 0.2 µg/mL and 0.19 µg/mL
EC50 (µg/mL), blocking IL17A/F-induced IL6 secretion of HFF cells [7]: 1.19 µg/mL and 0.83 µg/mL
IC50 [8]: 0.5 µg/mL
Kd [9]: 0.0288 nM
koff [9]: 1.93e-05 s⁻¹
kon [9]: 671000 M⁻¹ s⁻¹
EC50 [10]: 0.046 µg/mL
